Experiments:
[1] = compound: CC(C)C[C@H](NC(=O)OCC1c2ccccc2-c2ccccc21)C(=O)O; test: Non-competitive inhibition of human recombinant-Sialin expressed in HEK293 cells assessed as reduction in [3H]Neu5Ac uptake by measuring Km level at 10 uM incubated for 15 mins by liquid scintillation counting method (reference value: 1.6 +/- 0.3 mM); assay type: cell-based
[2] = compound: O=C(N[C@@H](CSCc1cc(=O)oc2cc(O)ccc12)C(=O)O)OCC1c2ccccc2-c2ccccc21; test: Non-competitive inhibition of human recombinant-Sialin expressed in HEK293 cells assessed as reduction in [3H]Neu5Ac uptake by measuring Km level at 3 uM incubated for 15 mins by liquid scintillation counting method (reference value: 1.4 +/- 0.5 mM)

B1: Sialin (Homo sapiens), Q9NRA2 (protein)
chain: MRSPVRDLARNDGEESTDRTPLLPGAPRAEAAPVCCSARYNLAILAFFGFFIVYALRVNLSVALVDMVDSNTTLEDNRTSKACPEHSAPIKVHHNQTGKKYQWDAETQGWILGSFFYGYIITQIPGGYVASKIGGKMLLGFGILGTAVLTLFTPIAADLGVGPLIVLRALEGLGEGVTFPAMHAMWSSWAPPLERSKLLSISYAGAQLGTVISLPLSGIICYYMNWTYVFYFFGTIGIFWFLLWIWLVSDTPQKHKRISHYEKEYILSSLRNQLSSQKSVPWVPILKSLPLWAIVVAHFSYNWTFYTLLTLLPTYMKEILRFNVQENGFLSSLPYLGSWLCMILSGQAADNLRAKWNFSTLCVRRIFSLIGMIGPAVFLVAAGFIGCDYSLAVAFLTISTTLGGFCSSGFSINHLDIAPSYAGILLGITNTFATIPGMVGPVIAKSLTPDNTVGEWQTVFYIAAAINVFGAIFFTLFAKGEVQNWALNDHHGHRH
Question: Which results are given for B1?
Answer: Km [1]: 1300 µM; Km [2]: 1700 µM

Reference: ChEMBL document CHEMBL4627406, “Amino Acids Bearing Aromatic or Heteroaromatic Substituents as a New Class of Ligands for the Lysosomal Sialic Acid Transporter Sialin” (J Med Chem, 2020)
